# Measurements from publication PMC2670979 (2009).
# B1: GST-Miro1 WT [not stated] / TRAK2 (amino acids 476–700) [modified: 35S-methionine label; 35S-methionine label] [not stated] (parent complex)
# chain 1: MKKDVRILLVGEPRVGKTSLIMSLVSEEFPEEVPPRAEEITIPADVTPERVPTHIVDYSEAEQSDEQLHQEISQANVICIVYAVNNKHSIDKVTSRWIPLINERTDKDSRLPLILVGNKSDLVEYSSMETILPIMNQYTEIETCVECSAKNLKNISELFYYAQKAVLHPTGPLYCPEEKEMKPACIKALTRIFKISDQDNDGTLNDAELNFFQRICFNTPLAPQALEDVKNVVRKHISDGVADSGLTLKGFLFLHTLFIQRGRHETTWTVLRRFGYDDDLDLTPEYLFPLLKIPPDCTTELNHHAYLFLQSTFDKHDLDRDCALSPDELKDLFKVFPYIPWGPDVNNTVCTNERGWITYQGFLSQWTLTTYLDVQRCLEYLGYLGYSILTEQESQASAVTVTRDKKIDLQKKQTQRNVFRCNVIGVKNCGKSGVLQALLGRNLMRQKKIREDHKSYYAINTVYVYGQEKYLLLHDISESEFLTEAEIICDVVCLVYDVSNPKSFEYCARIFKQHFMDSRIPCLIVAAKSDLHEVKQEYSISPTDFCRKHKMPPPQAFTCNTADAPSKDIFVKLTTMAMYPHVTQADLKSSTFWLRASFGATVFAVLGFAMYKALLKQR
# chain 2: EDSDLATALHRLSLRRQNYLSEKQFFAEEWERKLQILAEQEEEVSSCEALTENLASFCTDQSETTELGSAGCLRGFMPEKLQIVKPLEGSQTLHHWQQLAQPNLGTILDPRPGVITKGFTQMPKDAVYHISDLEEDEEVGITFQVQQPLQLEQKPAPPPPVTGIFLPPMTSAGGPVSVATSNPGKCLSFTNSTFTFTTCRILHPSDITQVTPSSGFPSLSCGSSA
# Variants of: B1
# Test: GST pull-down of in vitro translated 35S-labeled protein; 2 mM Ca2+; normalized to 100 at 0 mM Ca2+; parent: 110; read off a plot
row,Variant,screen value
1,"chain 1 E208K, chain 1 E328K",~120
